From article PMC9288967

Target: SARS-CoV-2 spike RBD (wild type) (SARS-CoV-2) (UniProt P0DTC2)
Assay: cross-linking

Substance	kobs (apparent first-order constant of cross-linking)
mNb6(108FFY) (VHH)	0.244 h⁻¹
mNb6(108FSY) (VHH)	0.102 h⁻¹
